This note sets out measurements from patent US20230357427A1 (SHANGHAI IMMUNOHEAD BIOTECHNOLOGY, published 2023).

Experiment [1] deals with T1, EpCAM on human tumor cells (SW480, HCT116, HCT116-Luc, KATO-III, A549) (human, UniProt P16422 24-314).
T1 construct: whole, on cells; also called epithelial cell adhesion molecule
T1 sequence (looked up): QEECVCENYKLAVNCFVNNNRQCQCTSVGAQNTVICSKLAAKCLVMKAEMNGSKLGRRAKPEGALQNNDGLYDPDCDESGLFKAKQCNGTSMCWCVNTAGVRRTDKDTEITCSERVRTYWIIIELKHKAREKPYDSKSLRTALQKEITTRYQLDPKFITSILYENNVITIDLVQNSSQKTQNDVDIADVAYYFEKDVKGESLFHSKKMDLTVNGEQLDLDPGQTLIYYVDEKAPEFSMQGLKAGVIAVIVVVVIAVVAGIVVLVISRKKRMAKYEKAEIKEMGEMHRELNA
The experiment is described as follows: flow cytometry on SW480 cells. An excerpt:
(§1) The EC50 values of each recombinant antibody on SW480 and HCT116 are shown in Table 3, which are derived from FIGS. 1-4.
(Flow cytometry measures light scatter and fluorescence of single cells or particles in a stream.)

Experiment [2] concerns the target T1, EpCAM on human tumor cells (SW480, …). Put plainly: flow cytometry on HCT116 cells.
Text: as §1

B1: H2L1 (antibody, V domains shown)
VH: QVQLVQSGAEVKKPGASVKVSCKASGYTFTNYWINWVRQAPGQGLEWIGNIYPSYIYTNYNQEFKDKVTLTVDESTSTAYMELSSLRSEDTAVYYCTRSPYGYDEYGLDYWGQGTTVTVSS
VL: DIQLTQSPSSLSASVGDRVTMTCKSSQSLLNSRNQKNYLTWYQQKPGKAPKLLIYWASTRESGVPSRFSGSGSGTDFTLTISSVQPEDFATYYCQNDYVYPLTFGQGTKLEIK
notes: Recombinant antibody from ExpiCHO-s; the limits were counted from the printed signal peptide, linker and hinge
The EC50 is the midpoint of the concentration-response curve. A lower EC50 goes with greater potency. With B1, the EC50 is 0.599 µg/mL in experiment [1] and 0.583 µg/mL in experiment [2].

B2: H2L3 (antibody, V domains shown)
VH: QVQLVQSGAEVKKPGASVKVSCKASGYTFTNYWINWVRQAPGQGLEWIGNIYPSYIYTNYNQEFKDKVTLTVDESTSTAYMELSSLRSEDTAVYYCTRSPYGYDEYGLDYWGQGTTVTVSS
VL: DIVLTQSPDSLAVSLGERATMNCKSSQSLLNSRNQKNYLTWYQQKPGQPPKLLIYWASTRESGVPDRFSGSGSGTDFTLTISSLQAEDVAVYYCQNDYVYPLTFGQGTKLEIK
notes: as for B1
On to B2, for which the EC50 in experiment [1] was 0.653 µg/mL; in experiment [2], 0.584 µg/mL.

B3: H2L4 (antibody, V domains shown)
VH: QVQLVQSGAEVKKPGASVKVSCKASGYTFTNYWINWVRQAPGQGLEWIGNIYPSYIYTNYNQEFKDKVTLTVDESTSTAYMELSSLRSEDTAVYYCTRSPYGYDEYGLDYWGQGTTVTVSS
VL: EIVLTQSPATLSLSPGERATMSCKSSQSLLNSRNQKNYLTWYQQKPGQAPRLLIYWASTRESGIPARFSGSGSGTDFTLTISSLEPEDFAVYYCQNDYVYPLTFGQGTKLEIK
notes: as for B1
B3: the figures for the half-maximal effective concentration (EC50) in experiment [1] and in experiment [2] were 0.655 µg/mL and 0.584 µg/mL, respectively.

B4: H2L2 (antibody, V domains shown)
VH: QVQLVQSGAEVKKPGASVKVSCKASGYTFTNYWINWVRQAPGQGLEWIGNIYPSYIYTNYNQEFKDKVTLTVDESTSTAYMELSSLRSEDTAVYYCTRSPYGYDEYGLDYWGQGTTVTVSS
VL: DIQLTQSPSSLSASVGDRVTMTCKSSQSLLNTRNQKNYLTWYQQKPGKAPKLLIYWASTRESGVPSRFSGSGSGTDFTLTISSLQPEDFATYYCQNDYVYPLTFGQGTKLEIK
notes: as for B1
Take B4: the EC50 in experiment [1] amounted to 0.595 µg/mL; in experiment [2] it was 0.537 µg/mL.

B5: H5L1 (antibody, V domains shown)
VH: QVQLVQSGAEVKKPGASVKVSCKASGYTFTNYWINWVRQAPGQGLEWIGNIYPSYIYTNYNQEFKDRVTMTRDTSISTAYMELSRLRSDDTAVYYCTRSPYGYDEYGLDYWGQGTTVTVSS
VL: DIQLTQSPSSLSASVGDRVTMTCKSSQSLLNSRNQKNYLTWYQQKPGKAPKLLIYWASTRESGVPSRFSGSGSGTDFTLTISSVQPEDFATYYCQNDYVYPLTFGQGTKLEIK
notes: as for B1
As for B5, the EC50 in experiment [1] was 0.449 µg/mL; in experiment [2] it was 0.426 µg/mL.

B6: H3L3 (antibody, V domains shown)
VH: QVQLVQSGAEVKKPGASVKVSCKASGYTFTNYWINWVRQAPGQGLEWIGNIYPSYIYTNYNQEFKDRVTLTRDTSISTAYMELSRLRSDDTAVYYCTRSPYGYDEYGLDYWGQGTTVTVSS
VL: DIVLTQSPDSLAVSLGERATMNCKSSQSLLNSRNQKNYLTWYQQKPGQPPKLLIYWASTRESGVPDRFSGSGSGTDFTLTISSLQAEDVAVYYCQNDYVYPLTFGQGTKLEIK
notes: as for B1
Turning to B6, the EC50 was 0.542 µg/mL in experiment [1] and 0.492 µg/mL in experiment [2].

B7: H1L3 (antibody, V domains shown)
VH: QVQLVQSGAEVKKPGASVKLSCKASGYTFTNYWINWVKQAPGQGLEWIGNIYPSYIYTNYNQEFKDKVTLTVDESTSTAYMELSSLRSEDTAVYYCTRSPYGYDEYGLDYWGQGTTVTVSS
VL: DIVLTQSPDSLAVSLGERATMNCKSSQSLLNSRNQKNYLTWYQQKPGQPPKLLIYWASTRESGVPDRFSGSGSGTDFTLTISSLQAEDVAVYYCQNDYVYPLTFGQGTKLEIK
notes: as for B1
As to B7, the figures for the EC50 in experiment [1] and in experiment [2] were 0.631 µg/mL and 0.563 µg/mL, respectively.

B8: H1L4 (antibody, V domains shown)
VH: QVQLVQSGAEVKKPGASVKLSCKASGYTFTNYWINWVKQAPGQGLEWIGNIYPSYIYTNYNQEFKDKVTLTVDESTSTAYMELSSLRSEDTAVYYCTRSPYGYDEYGLDYWGQGTTVTVSS
VL: EIVLTQSPATLSLSPGERATMSCKSSQSLLNSRNQKNYLTWYQQKPGQAPRLLIYWASTRESGIPARFSGSGSGTDFTLTISSLEPEDFAVYYCQNDYVYPLTFGQGTKLEIK
notes: as for B1
As for B8, the EC50 was determined as 0.675 µg/mL in experiment [1] and 0.602 µg/mL in experiment [2].

B9: H1L1 (antibody, V domains shown)
VH: QVQLVQSGAEVKKPGASVKLSCKASGYTFTNYWINWVKQAPGQGLEWIGNIYPSYIYTNYNQEFKDKVTLTVDESTSTAYMELSSLRSEDTAVYYCTRSPYGYDEYGLDYWGQGTTVTVSS
VL: DIQLTQSPSSLSASVGDRVTMTCKSSQSLLNSRNQKNYLTWYQQKPGKAPKLLIYWASTRESGVPSRFSGSGSGTDFTLTISSVQPEDFATYYCQNDYVYPLTFGQGTKLEIK
notes: Recombinant antibody from ExpiCHO-s; These limits were counted from the printed signal peptide, linker and hinge
In the case of B9, the EC50 in experiment [1] came to 0.567 µg/mL; in experiment [2], 0.503 µg/mL.

B10: H3L1 (antibody, V domains shown)
VH: QVQLVQSGAEVKKPGASVKVSCKASGYTFTNYWINWVRQAPGQGLEWIGNIYPSYIYTNYNQEFKDRVTLTRDTSISTAYMELSRLRSDDTAVYYCTRSPYGYDEYGLDYWGQGTTVTVSS
VL: DIQLTQSPSSLSASVGDRVTMTCKSSQSLLNSRNQKNYLTWYQQKPGKAPKLLIYWASTRESGVPSRFSGSGSGTDFTLTISSVQPEDFATYYCQNDYVYPLTFGQGTKLEIK
notes: as for B1
On to B10, for which the results for the EC50 in experiment [1] and in experiment [2] were 0.564 µg/mL and 0.478 µg/mL, respectively.

B11: H3L2 (antibody, V domains shown)
VH: QVQLVQSGAEVKKPGASVKVSCKASGYTFTNYWINWVRQAPGQGLEWIGNIYPSYIYTNYNQEFKDRVTLTRDTSISTAYMELSRLRSDDTAVYYCTRSPYGYDEYGLDYWGQGTTVTVSS
VL: DIQLTQSPSSLSASVGDRVTMTCKSSQSLLNTRNQKNYLTWYQQKPGKAPKLLIYWASTRESGVPSRFSGSGSGTDFTLTISSLQPEDFATYYCQNDYVYPLTFGQGTKLEIK
notes: as for B1
As to B11, the EC50 in experiment [1] amounted to 0.569 µg/mL; in experiment [2], 0.472 µg/mL.

B12: H4L1 (antibody, V domains shown)
VH: QVQLVQSGAEVKKPGASVKVSCKASGYTFTNYWINWVRQAPGQGLEWIGNIYPSYIYTNYAQKFQGRVTLTRDTSTSTVYMELSSLRSEDTAVYYCTRSPYGYDEYGLDYWGQGTTVTVSS
VL: DIQLTQSPSSLSASVGDRVTMTCKSSQSLLNSRNQKNYLTWYQQKPGKAPKLLIYWASTRESGVPSRFSGSGSGTDFTLTISSVQPEDFATYYCQNDYVYPLTFGQGTKLEIK
notes: as for B1
As to B12, the EC50 amounted to 0.568 µg/mL in experiment [1] and 0.474 µg/mL in experiment [2].

B13: mHmL (antibody, V domains shown)
VH: QVKLQQSGAELVRPGASVKLSCKASGYTFTNYWINWVKQRPGQGLEWIGNIYPSYIYTNYNQEFKDKVTLTVDESSSTAYMQLSSPTSEDSAVYYCTRSPYGYDEYGLDYWGQGTTVTVSS
VL: DIELTQSPSSLTVTAGEKVTMNCKSSQSLLNSRNQKNYLTWYQQKPGQPPKLLIYWASTRESGVPDRFTGSGSGTDFTLTISSVQAEDLAVYYCQNDYVYPLTFGAGTKLEIK
notes: it was captured on Protein A; also called original antibody mHmL; EpCAM antibody
In the case of B13, the EC50 in experiment [1] was 0.581 µg/mL; in experiment [2] it was 0.468 µg/mL.
